Assay results: US9809653B2, “Anti-LAMP1 antibodies and antibody drug conjugates, and uses thereof” (SANOFI, priority 2012, dated 2017)
Where two headings read alike, the source gives them in different places.

T1: LAMP1 expressed on the surface of advanced human primary colon tumor CR-IGR-034P (Homo sapiens, UniProt P11279)
T1 construct: endogenous in cells; host or cells: enzymatically dissociated patient-derived xenograft tumour cells (e.g. CR-IGR-034P, LUN-NIC-014P, BRE-IGR-0159) and tumour cell lines
T1 sequence (P11279 29-417): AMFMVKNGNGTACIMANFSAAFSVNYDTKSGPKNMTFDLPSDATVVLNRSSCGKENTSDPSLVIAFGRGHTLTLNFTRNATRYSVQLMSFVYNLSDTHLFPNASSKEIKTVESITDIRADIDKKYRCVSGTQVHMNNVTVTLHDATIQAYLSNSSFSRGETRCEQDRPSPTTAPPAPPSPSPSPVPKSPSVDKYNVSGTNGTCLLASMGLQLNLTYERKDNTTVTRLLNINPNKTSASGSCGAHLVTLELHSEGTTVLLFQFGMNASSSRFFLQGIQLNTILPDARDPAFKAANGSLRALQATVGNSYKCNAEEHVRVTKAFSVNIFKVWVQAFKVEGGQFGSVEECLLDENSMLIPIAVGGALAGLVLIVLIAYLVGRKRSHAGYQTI

T2: human LAMP1 expressed transiently at the cell surface of HEK293 (Homo sapiens, UniProt P11279)
T2 construct: expressed in transfected cells; host or cells: HEK293 (Invitrogen K9000-10), transient transfection
T2 sequence (P11279 29-417): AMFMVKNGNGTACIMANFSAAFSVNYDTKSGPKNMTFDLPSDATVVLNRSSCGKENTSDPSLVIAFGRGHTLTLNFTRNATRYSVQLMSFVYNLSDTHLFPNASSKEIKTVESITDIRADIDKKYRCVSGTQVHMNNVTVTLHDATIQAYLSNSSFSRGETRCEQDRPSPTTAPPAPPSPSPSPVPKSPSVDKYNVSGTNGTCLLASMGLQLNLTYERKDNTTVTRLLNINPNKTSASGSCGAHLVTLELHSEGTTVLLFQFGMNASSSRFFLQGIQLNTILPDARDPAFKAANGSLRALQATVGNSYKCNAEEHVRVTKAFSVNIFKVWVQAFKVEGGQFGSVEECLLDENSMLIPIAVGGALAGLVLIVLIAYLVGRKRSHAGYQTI

B1: MAb1: murine monoclonal anti-LAMP1 antibody, VH SEQ ID NO: 1, VL SEQ ID NO: 5 (antibody, V domains shown)
VH: QVQLQQSGAELVKPGASVKMSCKASGYIFTNYNIHWVKKSPGQGLEWIGAIYPGNGDAPYSQKFKDKATLTADKSSSTTYMQLSRLTSEDSAVYYCVRANWDVAFAYWGQGTLVSVSA
VL: DIQMTQSPPSLSASLGGKVTITCKASQDIDRYMAWYQDKPGKGPRLLIHDTSTLQPGIPSRFSGSGSGRDYSFSISNLEPEDIATYYCLQYDNLWTFGGGTKLEIK
modifications: Antibody Fragment; antibody fragment
B2: MAb2: murine monoclonal anti-LAMP1 antibody, VH SEQ ID NO: 8, VL SEQ ID NO: 12 (antibody, V domains shown)
VH: QVQLQQSAAELARPGASVKMSCKASGYTFTSYTMHWVKQRPGQGLEWIGYFNPSSGYPEYNQKFKDKTTLTADKSSNTAFIQLNSLTSEDSAVYYCSRGYYYGSRGYALDFWGQGASVTVSS
VL: NIVLTQSPVSLAVSLGQRATISCRASESVDINGNTFMHWYQQKPGQSPKLVIYAASNIESGVPARFSGSGSSTDFTFTIDPVEADDVATYYCQQNIEDPWTFGGGTKVEIK
modifications: antibod fragment; antibody fragment

Legend:
Type in all cases: binding
[1] = tested on: cynomolgus monkey LAMP1 protein (SEQ ID NO: 29); test: ELISA on cynomolgus monkey LAMP1; details: FIG. 3
Sequence of cynomolgus monkey LAMP1 protein (SEQ ID NO: 29) (as listed by the source): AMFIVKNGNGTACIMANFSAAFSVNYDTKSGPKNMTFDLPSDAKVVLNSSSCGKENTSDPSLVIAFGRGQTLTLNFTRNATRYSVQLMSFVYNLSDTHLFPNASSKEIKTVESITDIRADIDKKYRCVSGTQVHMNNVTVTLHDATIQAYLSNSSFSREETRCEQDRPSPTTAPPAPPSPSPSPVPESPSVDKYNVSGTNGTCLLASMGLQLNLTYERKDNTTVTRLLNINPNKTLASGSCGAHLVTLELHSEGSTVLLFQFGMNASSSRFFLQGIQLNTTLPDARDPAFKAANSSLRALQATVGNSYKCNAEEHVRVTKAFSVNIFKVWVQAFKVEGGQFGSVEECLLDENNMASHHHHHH
Method: Extracellular domain of LAMP1 of human (Ala29-Met382 of SEQ ID NO: 24) and cynomolgus monkey LAMP1 (Ala27-Met380 of SEQ ID NO: 39) were prepared as described in example 6.2. […] The antibody binding was visualized by adding TMB-H2O2 buffer and read at a wavelength of 450 nm.
Antibody MAb4 was assessed for its ability to bind primate LAMP1 protein by enzyme-linked immunosorbent assay (ELISA) assay as described in example 4.7 and EC50 values determined as described in example 6.2.

[2] = tested on: cynomolgus monkey LAMP1 expressed transiently at the cell surface of HEK293; test: FACS on HEK293 cells transiently transfected with cynomolgus LAMP1; details: transient HEK293
Sequence of cynomolgus monkey LAMP1 expressed transiently at the cell surface of HEK293 (as listed by the source): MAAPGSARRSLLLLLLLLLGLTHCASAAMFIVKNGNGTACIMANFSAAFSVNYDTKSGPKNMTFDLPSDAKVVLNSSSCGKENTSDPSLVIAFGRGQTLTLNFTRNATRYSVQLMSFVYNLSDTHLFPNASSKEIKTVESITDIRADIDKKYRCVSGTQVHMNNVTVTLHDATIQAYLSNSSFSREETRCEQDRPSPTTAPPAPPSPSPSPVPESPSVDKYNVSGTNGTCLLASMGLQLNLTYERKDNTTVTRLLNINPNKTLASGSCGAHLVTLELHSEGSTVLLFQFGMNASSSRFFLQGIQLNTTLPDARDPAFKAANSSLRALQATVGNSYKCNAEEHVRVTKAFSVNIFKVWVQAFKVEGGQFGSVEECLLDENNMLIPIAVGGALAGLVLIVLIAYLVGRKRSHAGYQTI
Source text: (§1) LAMP1 Coding DNA Sequence, RefSeq NM_005561.3 (SEQ ID NO: 23) was cloned internally. The CDS of Macaca mulatta LAMP1, RefSeq XP_001087801 (SEQ ID NO: 27) was also cloned internally. The predicted sequences of mature LAMP1 from Macaca mulatta and Macaca fascicularis are identical to 99%, said sequence differing by one additional Leucin at position 11 of Macaca mulatta (SEQ ID NO: 27), i.e. in the signal peptide. The mature LAMP1 proteins of Macaca mulatta and Macaca fascicularis are identical. Therefore the secreted LAMP1 used in the following example is referred to cynomolgus monkey. Both CDS were cloned into mammalian expression plasmids under CMV enhancer/promoter and SV40 polyA signals. HEK293 cells (Invitrogen; #K9000-10.) were transiently transfected with human LAMP1 or cynomolgus LAMP1 plasmids using FreeStyle™ MAX 293 Expression System according to the manufacturer's instructions. […] 100 μL/well of goat anti-mouse IgG conjugated with Alexa647 (Invitrogen; #A2135) was added for 45 min at 4° C. and washed three times with PBS 1% BSA. The antibody binding was evaluated after centrifugation and resuspension of cells by adding 200 μl/well PBS 1% BSA and read using Guava® easyCyte™ 8HT Flow Cytometry System. EC50 values were estimated using BIOST@T-SPEED software.

[3] = molecular target: T1, LAMP1 expressed on the surface of advanced human primary colon tumor CR-IGR-034P; test: Apparent affinity to human primary colon tumor PDX by flow cytometry; details: dissociated PDX tumor cells, 45 min at 4° C., read-out: EC50 obtained with CR-IGR-034P
Method: Advanced human primary colon tumor CR-IGR-034P was obtained from Patient-derived xenograft in mice. Tumor CR-IGR-034P was enzymatically dissociated using collagenase Type IV (Invitrogen; #17104-019) and deoxyribonuclease I (Invitrogen; #18047-019) for 1 h at 4° C. Cell viability was estimated by Viacount application using Guava® easyCyte™ 8HT Flow Cytometry System. […] 100 μL/well of goat anti-mouse IgG conjugated with Alexa647 (Invitrogen; #A2135) or goat anti-human IgG conjugated with Alexa488 (Invitrogen; #A11013) was added for 45 min at 4° C. and washed three times with PBS 1% BSA. The antibody binding was evaluated after centrifugation and resuspension of cells by adding 200 μl/well PBS 1% BSA and read using Guava® easyCyte™ 8HT Flow Cytometry System. EC50 values were estimated using BIOST@T-SPEED software. EC50 values obtained with the advanced human primary colon tumor CR-IGR-034P are listet in Table 3.

[4] = molecular target: T2, human LAMP1 expressed transiently at the cell surface of HEK293; test: FACS on HEK293 cells transiently transfected with human LAMP1; details: transient HEK293
Source text: as §1

[5] = tested on: hybrid between murine and human LAMP1 domains; test: Epitope ELISA on human/mouse hybrid LAMP1 extracellular domains
Source text: The high level of glycosylation of the antigen required a specific approach to determine the binding site of the anti-LAMP1 mAbs on LAMP1. […] This absence of binding was used to design several chimeric LAMP1 proteins in which one or several of the LAMP1 domains (Loop1-Loop4) in the human construct were replaced by the murine counterpart. The absence of binding once the binding site of the antibody was replaced by the murine counterpart allowed for identification of the antibody binding side.

[6] = read-out: EC50 (nM) Loop1-2: hLAMP1 Loop3-4: mLAMP1
[7] = read-out: EC50 (nM) Loop1-3: hLAMP1 Loop4: mLAMP1

Molecule	Binding affinity, cynomolgus monkey LAMP1 versus human LAMP1 [1]	EC50 [2] [nM]	EC50 [3] [nM]	EC50 [4] [nM]	EC50 (nM) Loop1-2: mLAMP1 Loop3-4: hLAMP1 [5]	EC50 [5, 6] [nM]	EC50 [5, 7] [nM]	EC50 ([5]; read-out: EC50 (nM) Loop1: mLAMP1 Loop2-4: hLAMP1) [nM]	EC50 (nM) Loop1: mLAMP1 Loop2-4: hLAMP1 [5]
B1	in the same range	44	5	14	No binding	0.18	0.16	0.15	
B2			14		No binding	0.25	0.25		No binding
